In article PMC3906837:

Legend:
[1] = target: WT ORF18 ArdA (Streptococcus faecalis (Tn916 conjugative transposon)); assay: AUC; sedimentation equilibrium at 3.0 μM and 0.6 μM (monomers); 17 000, 27 000 and 35 000 r.p.m.; 20 °C; 200 mM NaCl, 20 mM Tris, 20 mM MES, 1 mM TCEP, pH 6.5; SEDPHAT
[2] = target: WT ORF18 ArdA (Streptococcus faecalis (Tn916 conjugative transposon)); assay: AUC; sedimentation equilibrium at 15 μM (monomers); 17 000, 27 000 and 35 000 r.p.m.; 20 °C; 200 mM NaCl, 20 mM Tris, 20 mM MES, 1 mM TCEP, pH 6.5; SEDPHAT; dimer to monomers
[3] = target: EcoKI Type I RM enzyme (E. coli (endogenous in E. coli NM1049(DE3))) (UniProt P08956)
[4] = target: L127E ArdA (Streptococcus faecalis (Tn916 conjugative transposon)); assay: AUC; sedimentation equilibrium at 15 μM (monomers); 17 000, 27 000 and 35 000 r.p.m.; 20 °C; 200 mM NaCl, 20 mM Tris, 20 mM MES, 1 mM TCEP, pH 6.5; SEDPHAT; dimer to monomers

| Substance | stoichiometry N [1] | stoichiometry N [2] | antimodification in vivo: titre ratio of phage λv.0 recovered from E. coli NM1049(DE3) expressing the ArdA protein (WT ORF18 ArdA 122.0; vector 0.9) [3] | Kd [4] [µM] | stoichiometry N [4] |
| --- | --- | --- | --- | --- | --- |
| WT ORF18 ArdA (natural protein) | 2 | 2 | – | – | – |
| L127E ArdA (natural protein) | – | – | 1 | 10 | 2 |
